For 4 molecules, koff results are on record in publication PMC12858062 (2026).

B1: A4-Fc (anti-Pfs48/45 nanobody A4 fused to hinge and Fc of human IgG1) (Fc fusion)
chain: QVQLQESGGGLVQPGGSLRLSCAASGFTFSSYWMYWVRETPGKGLEWVSVINPGGRITIYTDSVKGRFTVSRDNAKNTVYLQMNSLKPEDTAVYFCAADLEYRAQLYAYWGQGTQVTVSS
B2: Anti-Pfs48/45 monoclonal antibody TB31F (humanised version of 85RF45.1) (antibody, V domains shown)
VH: EVQLVQSGGGLVQPGGSLRLSCAASGFTFNNYWMSWVRQAPGKGLEWVSSISNIGGTIYYPDSVKGRFTISRDNSKNTLYLQMNSLRAEDTAVYYCTRDLRMSDYFDYWGQGTMVTVSS
VL: NFMLTQPHSVSESPGKTVTISCTRSTGNIGSNYVSWYQQRPGSSPTTVIYRDDQRPSGVPDRFSGSIDRSSNSASLTISGLKTEDEADYYCHSYSTGMYIFGGGTKLTVL
B3: B2-Fc (anti-Pfs48/45 nanobody B2 fused to hinge and Fc of human IgG1) (Fc fusion)
chain: QVQLQESGGGLVQAGGSLRLSCAASGRTFSKYAMAWFRQAPGKEREFVAAISGAGGATVHAAPVKGRFTISRDNAKNMGYLQMNSLKPEDTAVYYCAQTGSTGWPAGRTYTYDYWGQGTQVTVSS
B4: C3-Fc (anti-Pfs48/45 nanobody C3 fused to hinge and Fc of human IgG1) (Fc fusion)
chain: QVQLQESGGGSVQPGGSLRLSCAASGFTFSSYWMYWVRQAPEKGLEWVSVINPGGRITIYTDSVKGRFAVSRDNAKNTVYLQLNSLKPEDTAVYYCAASRTYSNSYSPSDYDYWGQGTQVTVSS

This test has as its target Stabilised Pfs48/45 D3 (D3.mAgE1), PNGase F-deglycosylated, with C-terminal hexa-histidine tag and AviTag (P. falciparum). The test can be described thus: BLI. For orientation: BLI is a label-free optical method that tracks binding on a fibre tip over time.
In the case of B1, the koff (as a rule, the first-order rate constant of dissociation) was 0.00851 s⁻¹.
For the molecule B2, the koff stood at 0.00239 s⁻¹.
B3 registered an off-rate constant (koff) of 0.00476 s⁻¹.
Turning to B4, the koff came to 0.0106 s⁻¹.
